Biological target: the molecule itself
Experiment: […] (25 mM HEPES pH 8, 300 mM NaCl, 10% glycerol, 1 mM TCEP); […]; 20 °C; […]

B1: HCoV-229E nsp15 protein, wild type (recombinant, hexameric) (enzyme)
chain: GLENIAFNVVNKGSFVGADGELPVAISGDKVFVRDGNTDNLVFVNKTSLPTNIAFELFAKRKVGLTPPLSILKNLGVVATYKFVLWDYEAERPLTSFTKSVCGYTDFAEDVCTCYDNSIQGSYERFTLSTNAVLFSATAVKTGGKSLPAIKLNFGMLNGNAIATVKSEDGNIKNINWFVYVRKDGKPVDHYDGFYTQGRNLQDFLPRSTMEEDFLNMDIGVFIQKYGLEDFNFEHVVYGDVSKTTLGGLHLLISQVRLSKMGILKAEEFVAASDITLKCCTVTYLNDPSSKTVCTYMDLLLDDFVSVLKSLDLTVVSKVHEVIIDNKPWRWMLWCKDNAVATFYPQLQ
notes: source: T7 Express E. coli, purified (Ni-NTA, SEC)
With B1 the “stoichiometry N” value was 6.

— publication PMC11856660 (PLOS Pathogens, 2025)
